In US20210188980A1 (SHANGHAI EPIMAB BIOTHERAPEUTICS, published 2021):

Legend:
[1] = target: T1, human PD-1 expressed on cells (human, UniProt Q15116 25-288); test: cell RBA FACS; competitor PD-L1/Fc
T1 construct: whole, on cells; also called CHO-K1/huPD-1; CHO-K1-hPD-1 cells

[2] = target: T1, human PD-1 expressed on cells; test: flow cytometry, biotinylated antibody + FITC-streptavidin, CD3 T cells; panel 'PBMC stimulation for 72h, Lag3 antibody treated group' (cells pre-treated with unlabelled HumAb747V-67)
Procedure: (§1) To further evaluate the cell surface binding ability of FIT107-1-7b-1, the parental antibodies HumAb713-7, HumAb747V-67, and the bispecific FIT-Ig FIT107-1-7b-1 were biotinylated with biotin reagent (Sigma, Cat. No. S3259). For PBMC without stimulation, PBMCs were re-suspended at 5×10⁶ cells/mi. For PD-1 antibody (HumAb713-7) or LAG-3 antibody (HumAb747V-67) testing, 100 μg/ml of antibody were added and the reaction mixture allowed to incubate at 37° C. for 40 minutes separately, followed by two washes with FACS buffer. Then 100 μl, 5×10⁵ PBMC/well (untreated group, anti-PD-1 antibody treated group and anti-LAG-3 antibody treated group) were seeded into wells of 96-well plate. Biotinylated HumAb713-7, HumAb747V-67 and FIT107-1-7b-1 were added and incubated at 37° C. for 40 minutes (final working concentration starting from 100 nM with 3-fold serial dilution) followed by washing with FACS buffer twice. FITC-streptavidin and BV421-anti human-CD3 antibody were added and the assay plate incubated at 4° C. for 30 minutes, followed by washing with FACS buffer twice. The plate was analyzed with a Beckman Coulter CytoFlex flow cytometer, PBMC stimulation groups were stimulated with anti-CD3 plus anti-CD28 antibody for 72 hours, to induce PD-1 and LAG-3 expression on T cells. […]

[3] = target: T1, human PD-1 expressed on cells; test: flow cytometry, biotinylated antibody + FITC-streptavidin, CD3 T cells; panel 'PBMC without stimulation, untreated group'
Procedure: as §1

[4] = target: T1, human PD-1 expressed on cells; test: flow cytometry, biotinylated antibody + FITC-streptavidin, CD3 T cells; panel 'PBMC stimulation for 72h, untreated group' (anti-CD3 plus anti-CD28)
Procedure: as §1

[5] = target: T1, human PD-1 expressed on cells; test: flow cytometry, biotinylated antibody + FITC-streptavidin, CD3 T cells; panel 'PBMC without stimulation, Lag3 antibody treated group' (cells pre-treated with unlabelled HumAb747V-67)
Procedure: as §1

human PD-1-His protein = target: T2, human PD-1-His protein (human, UniProt Q15116 25-167, limits assumed); test: SPR Biacore
T2 construct: also called huPD-1; not shown: His tag

[6] = target: T1, human PD-1 expressed on cells; test: cell RBA FACS; competitor PD-L2/Fc

T2 sequence (Q15116 25-167 limits assumed): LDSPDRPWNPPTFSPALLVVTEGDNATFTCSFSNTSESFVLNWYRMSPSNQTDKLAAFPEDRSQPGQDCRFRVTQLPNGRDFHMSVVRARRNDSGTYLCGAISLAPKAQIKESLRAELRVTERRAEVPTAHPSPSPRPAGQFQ
T1 sequence (Q15116 25-288): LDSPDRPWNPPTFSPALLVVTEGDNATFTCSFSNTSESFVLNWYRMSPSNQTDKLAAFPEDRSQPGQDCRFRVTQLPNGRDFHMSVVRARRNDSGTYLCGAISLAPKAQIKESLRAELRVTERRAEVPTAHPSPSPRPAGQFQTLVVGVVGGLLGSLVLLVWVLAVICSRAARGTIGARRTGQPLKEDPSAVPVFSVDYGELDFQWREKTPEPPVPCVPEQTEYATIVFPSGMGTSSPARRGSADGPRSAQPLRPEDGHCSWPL

B1: HumAb713-7 (antibody, human IgG1, kappa, L234A L235A, V domains shown)
VH: EVQLVESGGGLVQPGGSLRLSCAASGFTSSDYGMHWVRQAPGKGLEWVSYISSGSYTIYYADTVKGRFTISRDNAKNSLYLQMNSLRDEDTAVYYCAKRGGSSHVNVMDYWGQGTTVTVSS
VL: DIQMTQSPSSLSASVGDRVTITCKASDHINNWLAWYQQKPGKAPKLLIYGATSLETGVPSRFSGSGSGTDYTFTISSLQPEDIATYYCQQYWSPPYTFGGGTKVEIKR
notes: humanized mAb713
**Q.** With B1 as the binder, how does the IC50 [1] read?
**A.** 0.76 nM

**Q.** And the “EC50 (read off the curve)” value [2]?
**A.** ~3 nM

**Q.** What about the “EC50 (read off the curve)” value [3] of the same binder?
**A.** ~3 nM

**Q.** What about the “EC50 (read off the curve)” value [4] of the same binder?
**A.** ~2 nM

**Q.** What about the “EC50 (read off the curve)” value [5] of the same binder?
**A.** ~3 nM

**Q.** What about the Kd (human PD-1-His protein) of the same binder?
**A.** 2.83 nM

**Q.** And the koff (human PD-1-His protein)?
**A.** 0.00035 s⁻¹

**Q.** And the kon (human PD-1-His protein)?
**A.** 124000 M⁻¹ s⁻¹

**Q.** What about the IC50 [6] of the same binder?
**A.** 1.4 nM
